Measurements published in article PMC6131205, “Controlling the regioselectivity and stereospecificity of FAD-dependent polyamine oxidases with the use of amine-attached guide molecules as conformational modulators” (Bioscience Reports, 2018).
“And” between values parts separate entries of the source, which are not always exact repeats. Identical values can stand only once.

Legend:
Assay in all cases: purified protein, by the assay type;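 further: recombinant polyamine oxidases incubated with substrate, product amines (putrescine, 1,3-diaminopropane or butane-1,3-diamine) quantified by HPLC after post-column o-phthalaldehyde derivatization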
[1] = substrate: CC(=O)NCCCCNCCCN; settings: other: substrate alone, no aldehyde, pH 9.0, 25°C
Experimental: (§1) HPLC with post-column o-phthalaldehyde-derivatization was used to determine the concentrations of the reaction products Put and 1,3-diaminopropane (DAP) or butane-1,3-diamine respectively as described in [30]. Fms1 activity was determined essentially as described for human recombinant APAO, but reactions were carried out in 100 mM Glycine-NaOH buffer at pH 9.0 in a water bath at +25°C [29, 30].
(§2) The reactions were carried out in 1 triplicate at pH 9.0 in 100 mM Glycine-NaOH at +25°C.
(§3) values for N -Ac-MeSpd enantiomers were determined by using substrate concentrations of 25, 50,
(§4) for Rac-MeSpd 30 min, (R)-MeSpd 20 min and (S)-MeSpd 40 minutes.
(§5) The reactions were carried out in triplicate at pH 9.0 in 100 mM Glycine-NaOH at +25°C.
(§6) values for MeSpd enantiomers were determined by using substrate concentrations of 100, 300, 600,
(§7) 1000, 2000 and 4000 M. Recombinant Fms1 was 3.8 g/reaction and the incubation time 60
(§8) incubated for 30 min (half of the reaction time of an ordinary sample). E1 cleavage was monitored
(§9) by HPLC by measuring Put formation and E2 cleavage by determining butane-1,3-diamine content.

[2] = substrate: CC(=O)N[C@@H](C)CCNCCCCN; settings: other: Supplementary Table 1, pH 9.0, 100 mM Glycine-NaOH, 25°C, Put formation
Experimental: as §1, §2, §3, §4, §5, §6, §7, §8, §9

[3] = substrate: NCCCCNCCCN; settings: other: substrate alone, no aldehyde, pH 9.0, 25°C
Experimental: as §1, §2, §3, §4, §5, §6, §7, §8, §9

[4] = substrate: CC(=O)N[C@H](C)CCNCCCCN; settings: other: Supplementary Table 1, pH 9.0, 100 mM Glycine-NaOH, 25°C, Put formation
Experimental: as §1, §2, §3, §4, §5, §6, §7, §8, §9

[5] = substrate: CC(=O)NCCCNCCCCN; settings: other: substrate alone, no aldehyde, pH 9.0, 25°C
Experimental: as §1, §2, §3, §4, §5, §6, §7, §8, §9

[6] = substrate: CC(N)CCNCCCCN; settings: other: Supplementary Table 2, pH 9.0, 25°C
Experimental: as §1, §2, §3, §4, §5, §6, §7, §8, §9

[7] = substrate: CC(=O)NC(C)CCNCCCCN; settings: other: Supplementary Table 1, pH 9.0, 100 mM Glycine-NaOH, 25°C, Put formation
Experimental: as §1, §2, §3, §4, §5, §6, §7, §8, §9

B1: Fms1 (Saccharomyces cerevisiae S288C) (protein)
chain: MNTVSPAKKKVIIIGAGIAGLKAASTLHQNGIQDCLVLEARDRVGGRLQTVTGYQGRKYDIGASWHHDTLTNPLFLEEAQLSLNDGRTRFVFDDDNFIYIDEERGRVDHDKELLLEIVDNEMSKFAELEFHQHLGVSDCSFFQLVMKYLLQRRQFLTNDQIRYLPQLCRYLELWHGLDWKLLSAKDTYFGHQGRNAFALNYDSVVQRIAQSFPQNWLKLSCEVKSITREPSKNVTVNCEDGTVYNADYVIITVPQSVLNLSVQPEKNLRGRIEFQPPLKPVIQDAFDKIHFGALGKVIFEFEECCWSNESSKIVTLANSTNEFVEIVRNAENLDELDSMLEREDSQKHTSVTCWSQPLFFVNLSKSTGVASFMMLMQAPLTNHIESIREDKERLFSFFQPVLNKIMKCLDSEDVIDGMRPIENIANANKPVLRNIIVSNWTRDPYSRGAYSACFPGDDPVDMVVAMSNGQDSRIRFAGEHTIMDGAGCAYGAWESGRREATRISDLLK
Km [1]: 122 ± 18 µM
kcat [1]: 1.4 ± 0.1 s⁻¹
kcat/Km [1]: (12 ± 1.8) × 10^3 M^−1s^−1
Km [2]: 109 ± 18 µM
Km [3]: 534 ± 36 µM and 643 ± 52 µM
Km [4]: 155 ± 29 µM
Km [5]: 42 ± 8 µM
kcat [5]: 65 ± 2 s⁻¹
kcat/Km [5]: (1600 ± 300) × 10^3 M^−1s^−1
Km ([6]; Put formation): 502 µM and 555 µM
kcat ([6]; Put formation): 0.014 ± 0 s⁻¹ and 0.011 ± 0 s⁻¹
kcat/Km ([6]; Put formation): 28 M⁻¹ s⁻¹ and 20 M⁻¹ s⁻¹
Km ([6]; butane-1,3-diamine formation): 467 µM and 606 µM
kcat ([6]; butane-1,3-diamine formation): 0.006 ± 0 s⁻¹ and 0.013 ± 0 s⁻¹
kcat/Km ([6]; butane-1,3-diamine formation): 13 M⁻¹ s⁻¹ and 22 M⁻¹ s⁻¹
Km [7]: 140 ± 23 µM
